2 substances from patent publication CN109912717A can be followed below.

In assay [1] the target is 人CD40 (HEK293A细胞表达) (human) (UniProt P25942). Description: cell-based or functional assay.
For the next assay, the target named is 人CD40(ECD)-his蛋白 (human) (UniProt P25942). Description: SPR Biacore 8K; human CD40(ECD)-his coupled to CM5, antibody as analyte, 1:1 model.
Sequence of 人CD40(ECD)-his蛋白 (human) (P25942 21-193): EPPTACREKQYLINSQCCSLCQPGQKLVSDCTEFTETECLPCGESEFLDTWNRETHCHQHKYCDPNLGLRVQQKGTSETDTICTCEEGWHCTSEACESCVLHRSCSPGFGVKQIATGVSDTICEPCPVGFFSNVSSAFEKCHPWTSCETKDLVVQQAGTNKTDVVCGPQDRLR

Sequence of 人CD40 (HEK293A细胞表达) (human) (P25942 21-277 limits assumed): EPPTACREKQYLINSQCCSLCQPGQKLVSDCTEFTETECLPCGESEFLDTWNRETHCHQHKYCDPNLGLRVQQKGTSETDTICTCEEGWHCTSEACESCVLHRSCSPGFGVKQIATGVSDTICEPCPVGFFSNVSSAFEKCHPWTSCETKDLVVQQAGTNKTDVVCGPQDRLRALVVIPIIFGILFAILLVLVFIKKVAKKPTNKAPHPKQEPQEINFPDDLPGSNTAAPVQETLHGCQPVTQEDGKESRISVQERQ

In assay [1], ADC1013 (antibody) had an HEK-Blue EC50 of 1.03 µg/mL. Also, in the assay with 人CD40(ECD)-his蛋白 (human), the dissociation constant Kd (in general, the concentration at which binding is half-saturated) is 29 nM.
In turn, RO7009789 (antibody) yielded an HEK-Blue EC50 in assay [1] of 0.0233 µg/mL. The Kd with 人CD40(ECD)-his蛋白 (human) was found to be 1.71 nM.
